Measured values: publication doi:10.1101/2021.11.23.469700, “Zika virus-specific IgM elicited during pregnancy exhibits ultrapotent neutralization” (bioRxiv, 2021)

Assays:
[1] = molecular target: T1, ZIKV H/PF/2013 envelope (E) protein dimer (Zika virus H/PF/2013, UniProt A0A024B7W1, strain); assay: BLI; Octet Red96, 25°C, PBS pH 7.4; mAb captured on anti-human Ig AR2G tips; ZIKV E protein dimer 50-0.78 ug/mL; fast kinetic components of the heterogeneous ligand model fit; single measurement; conditions: both partners purified
T1 construct: also called ZIKV E dimer; his-tagged recombinant E protein dimer; source: recombinant

[2] = molecular target: T1, ZIKV H/PF/2013 envelope (E) protein …; assay: ELISA; recombinant E protein ELISA: DH1017 mAbs immobilised at 0.5 ug/mL in TBS; his-tagged recombinant E protein in 2-fold dilutions from 20 ug/mL, 1 hour at 37°C; anti-his HRP; OD450; conditions: both partners purified
[3] = molecular target: T2, ZIKV H/PF/2013 envelope (E) protein monomer (Zika virus H/PF/2013, UniProt A0A024B7W1, strain); assay: as above; conditions: both partners purified
T2 construct: also called ZIKV E monomer

Jo-1 = Jo-1 (Bos taurus (assumed), UniProt Q2KI84); assay: ELISA; autoantigen ELISA: purified antigens coated in 0.1M sodium bicarbonate; mAbs in 3-fold serial dilutions from 10 ug/ml, 1 hour at room temperature; HRP anti-human IgG, IgM and H+L; conditions: both partners purified
SSB = molecular target: T3, SSB (Bos taurus (assumed), UniProt P10881); assay: as above; conditions: both partners purified
T3 construct: source: bought: Immunovision, SSB-3000

Scl-70 = molecular target: T4, Scl-70 (Bos taurus (assumed), UniProt A0AAA9TV68); assay: as above; conditions: both partners purified
T4 construct: source: bought: Immunovision, SCL-3000

Centromere B = molecular target: T5, Centromere B (Homo sapiens, UniProt P07199); assay: as above; conditions: both partners purified
T5 construct: source: bought: Prospec, PRO-390

DENV4 (H241) virion = DENV4 (H241) virion (Dengue virus 4 H241, UniProt Q58HT7, strain); assay: ELISA; virion capture ELISA: virions captured on plates coated with 4G2 antibody; purified mAbs in 5-fold serial dilutions from 100 ug/mL, 1 hour at 37°C; HRP anti-human Ig; OD450; conditions: one partner purified
[4] = molecular target: DENV2 (New Guinea C) virion (Dengue virus 2 New Guinea C, UniProt P14340, strain); assay: as above; conditions: one partner purified
[5] = molecular target: DENV3 (Philippines) virion (Dengue virus 3 Philippines (H87/1956 …, UniProt P27915)); assay: as above; conditions: one partner purified
[6] = molecular target: T6, whole Zika PRVABC59 virion (Zika virus PRVABC59, UniProt A0A0X1LH65, strain); assay: as above; conditions: one partner purified
T6 construct: also called ZIKV PRVABC59; whole ZIKV virion; source: ZIKV PRVABC59 from BEI, grown in Vero-81 cells, filtered cell supernatant

DENV1 (Hawaii) virion = molecular target: T7, DENV1 (Hawaii) virion (Dengue virus 1 Hawaii (BEI NR-82), UniProt B5AGU1, strain); assay: as above; conditions: one partner purified
T7 construct: also called DENV1 (Hawaii NR-82)

ZIKV H/PF/2013 virion = molecular target: T8, ZIKV H/PF/2013 virion (Zika virus H/PF/2013, strain); assay: cryo-EM structure; purified virus and DH1017.Fab incubated on ice for 2 hours; single particle reconstruction with icosahedral symmetry, 4104 particles, 5.3 Å; conditions: both partners purified
T8 construct: also called ZIKV H/PF/2013 particles; Zika virion; copies: 180 +

Jo-1, sequence (P12081 whole entry): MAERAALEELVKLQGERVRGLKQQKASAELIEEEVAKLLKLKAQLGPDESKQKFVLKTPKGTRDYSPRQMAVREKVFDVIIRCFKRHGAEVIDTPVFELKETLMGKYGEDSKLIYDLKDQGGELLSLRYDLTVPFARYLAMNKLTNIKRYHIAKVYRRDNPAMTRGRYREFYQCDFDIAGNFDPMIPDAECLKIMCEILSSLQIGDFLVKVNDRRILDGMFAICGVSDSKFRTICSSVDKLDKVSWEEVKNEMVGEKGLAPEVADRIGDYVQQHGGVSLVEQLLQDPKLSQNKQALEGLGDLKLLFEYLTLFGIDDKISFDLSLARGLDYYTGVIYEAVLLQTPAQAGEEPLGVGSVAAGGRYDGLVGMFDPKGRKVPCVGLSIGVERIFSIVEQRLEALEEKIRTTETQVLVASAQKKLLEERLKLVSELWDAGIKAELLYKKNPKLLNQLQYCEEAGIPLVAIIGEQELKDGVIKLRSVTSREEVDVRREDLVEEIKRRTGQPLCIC
T4 sequence (P11387 whole entry): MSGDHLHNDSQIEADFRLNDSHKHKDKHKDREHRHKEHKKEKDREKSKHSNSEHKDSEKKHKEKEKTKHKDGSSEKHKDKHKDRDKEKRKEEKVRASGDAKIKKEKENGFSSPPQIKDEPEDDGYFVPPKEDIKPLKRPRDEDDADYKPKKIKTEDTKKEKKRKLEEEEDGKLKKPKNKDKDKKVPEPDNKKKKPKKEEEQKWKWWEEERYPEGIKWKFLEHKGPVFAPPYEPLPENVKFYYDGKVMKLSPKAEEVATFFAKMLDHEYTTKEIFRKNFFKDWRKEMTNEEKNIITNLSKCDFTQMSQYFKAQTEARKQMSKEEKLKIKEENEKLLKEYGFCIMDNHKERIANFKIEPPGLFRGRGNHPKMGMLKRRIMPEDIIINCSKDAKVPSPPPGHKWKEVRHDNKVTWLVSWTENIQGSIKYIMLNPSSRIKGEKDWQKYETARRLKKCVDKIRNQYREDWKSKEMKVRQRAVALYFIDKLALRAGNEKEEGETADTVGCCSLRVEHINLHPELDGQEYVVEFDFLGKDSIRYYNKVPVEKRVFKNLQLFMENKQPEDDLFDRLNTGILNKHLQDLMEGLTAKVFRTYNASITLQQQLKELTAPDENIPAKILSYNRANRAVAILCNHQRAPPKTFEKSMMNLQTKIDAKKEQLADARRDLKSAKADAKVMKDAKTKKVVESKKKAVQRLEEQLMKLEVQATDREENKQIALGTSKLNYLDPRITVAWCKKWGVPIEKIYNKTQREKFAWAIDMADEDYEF
T5 sequence (P07199 whole entry): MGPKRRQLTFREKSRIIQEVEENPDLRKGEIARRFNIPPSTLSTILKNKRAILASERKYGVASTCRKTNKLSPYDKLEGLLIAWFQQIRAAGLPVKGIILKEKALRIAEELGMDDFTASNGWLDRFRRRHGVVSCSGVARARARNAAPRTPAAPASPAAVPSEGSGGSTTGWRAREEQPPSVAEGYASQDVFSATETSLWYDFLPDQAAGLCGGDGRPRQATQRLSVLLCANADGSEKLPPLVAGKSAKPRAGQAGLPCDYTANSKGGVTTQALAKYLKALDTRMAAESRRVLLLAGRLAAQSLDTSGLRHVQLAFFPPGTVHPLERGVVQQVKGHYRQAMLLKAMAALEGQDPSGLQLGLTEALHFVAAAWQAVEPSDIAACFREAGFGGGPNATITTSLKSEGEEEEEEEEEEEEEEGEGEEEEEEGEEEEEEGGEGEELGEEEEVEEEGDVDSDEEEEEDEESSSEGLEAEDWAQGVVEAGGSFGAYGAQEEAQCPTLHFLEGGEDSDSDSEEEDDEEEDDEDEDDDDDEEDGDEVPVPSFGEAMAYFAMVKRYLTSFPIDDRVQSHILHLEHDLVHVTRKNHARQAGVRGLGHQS
T3 sequence (P05455 whole entry): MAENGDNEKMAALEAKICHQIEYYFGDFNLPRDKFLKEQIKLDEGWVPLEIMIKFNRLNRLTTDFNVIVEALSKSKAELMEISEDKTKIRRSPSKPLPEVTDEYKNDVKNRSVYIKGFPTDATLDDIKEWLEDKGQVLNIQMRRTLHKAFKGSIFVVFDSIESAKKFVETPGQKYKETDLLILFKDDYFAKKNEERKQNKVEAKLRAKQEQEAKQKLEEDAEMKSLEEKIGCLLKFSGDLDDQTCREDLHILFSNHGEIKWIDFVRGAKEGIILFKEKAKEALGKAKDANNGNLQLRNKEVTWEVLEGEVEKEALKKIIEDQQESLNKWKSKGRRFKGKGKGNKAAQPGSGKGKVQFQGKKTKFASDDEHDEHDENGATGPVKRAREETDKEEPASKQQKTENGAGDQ

B1: DH1017.IgM (antibody, V domains shown)
VH: QVQLQESGPGLVKPSQTLSLTCAVSGGSISSGDSYWSWIRQHPGKGLEWIGSIYYSGSTYYNPSLKSRVTIPIDTSKNQFSLKLSSVTAADTAVYYCARHVGDLRVNDAFDIWGQGTMVTVSS
VL: QSVLTQPPSVSAAPGQKVTISCSGSSSNIGNNFVSWYQRLPGTPPKLLIYDSDKRPSGIPDRFSGSKSGTSATLGITGLQTGDEGDYYCGTWDRSLSVVVFGGGTKLTVL
notes: also called mAb DH1017.IgM; copies: 10 + 10
Kd [1]: 106 nM
koff [1]: 0.0103 s⁻¹
EC50 [2]: 0.091 nM
EC50 [3]: 0.202 nM
binding result (Jo-1): no binding (tested: 10 ug/ml (start of the dilution series))
binding result (SSB): no binding (tested: 10 ug/ml (start of the dilution series))
binding result (Scl-70): no binding (tested: 10 ug/ml (start of the dilution series))
binding result (Centromere B): no binding (tested: 10 ug/ml (start of the dilution series))
binding result (DENV4 (H241) virion): no binding (tested: 100 ug/mL (start of the dilution series))
binding result [4]: no binding (tested: 100 ug/mL (start of the dilution series))
binding result [5]: no binding (tested: 100 ug/mL (start of the dilution series))
EC50 [6]: 0.022 nM
binding result (DENV1 (Hawaii) virion): no binding (tested: 100 ug/mL (start of the dilution series))

B2: DH1017.IgG (antibody, V domains shown)
VH: QVQLQESGPGLVKPSQTLSLTCAVSGGSISSGDSYWSWIRQHPGKGLEWIGSIYYSGSTYYNPSLKSRVTIPIDTSKNQFSLKLSSVTAADTAVYYCARHVGDLRVNDAFDIWGQGTMVTVSS
VL: QSVLTQPPSVSAAPGQKVTISCSGSSSNIGNNFVSWYQRLPGTPPKLLIYDSDKRPSGIPDRFSGSKSGTSATLGITGLQTGDEGDYYCGTWDRSLSVVVFGGGTKLTVL
notes: IgG1; also called recombinant DH1017.IgG; IgG1 isoform of DH1017; source: Expi 293i cells, co-transfected heavy and light chain plasmids, purified (Protein A resin)
Kd [1]: 123 nM
koff [1]: 0.0091 s⁻¹
EC50 [2]: 0.929 nM
EC50 [3]: 0.463 nM
binding result (Jo-1): no binding (tested: 10 ug/ml (start of the dilution series))
binding result (SSB): no binding (tested: 10 ug/ml (start of the dilution series))
binding result (Scl-70): no binding (tested: 10 ug/ml (start of the dilution series))
binding result (Centromere B): no binding (tested: 10 ug/ml (start of the dilution series))
EC50 [6]: 0.112 nM

B3: DH1017.Fab (Fab, V domains shown)
VH: QVQLQESGPGLVKPSQTLSLTCAVSGGSISSGDSYWSWIRQHPGKGLEWIGSIYYSGSTYYNPSLKSRVTIPIDTSKNQFSLKLSSVTAADTAVYYCARHVGDLRVNDAFDIWGQGTMVTVSS
VL: QSVLTQPPSVSAAPGQKVTISCSGSSSNIGNNFVSWYQRLPGTPPKLLIYDSDKRPSGIPDRFSGSKSGTSATLGITGLQTGDEGDYYCGTWDRSLSVVVFGGGTKLTVL
notes: also called DH1017 Fab fragment; Fab DH1017; source: Expi 293i cells, co-transfected heavy and light chain plasmids, purified (LambdaFabSelect agarose beads)
stoichiometry N (ZIKV H/PF/2013 virion): 1.5 Fab per asymmetric unit
EC50 [2]: 25.1 nM
EC50 [3]: 1.24 nM
binding result (Jo-1): no binding (tested: 10 ug/ml (start of the dilution series))
binding result (SSB): no binding (tested: 10 ug/ml (start of the dilution series))
binding result (Scl-70): no binding (tested: 10 ug/ml (start of the dilution series))
binding result (Centromere B): no binding (tested: 10 ug/ml (start of the dilution series))
